Series [1] has as its target complement C5 in human serum/blood (Homo sapiens, UniProt P01031). The experiment in a line: inhibition; hemolysis, 0.2% human serum, 25 C. As to conditions: protein: extract. The procedure: Hemolysis Assay: The effect of ARC913 (SEQ ID NO: 75) on the classical pathway of the complement system was analyzed using a hemolysis assay previously described, compared to both ARC186 (SEQ ID NO: 4) (Anti-C5 aptamer, positive control) and unselected dRmY pool (negative control). In the assay of hemolytic inhibition, a solution of 0.2% whole human serum was mixed with antibody-coated sheep erythrocytes (Diamedix EZ Complement CH50 Test, Diamedix Corporation, Miami, Fla.) in the presence of titrated ARC913 (SEQ ID NO: 75). The assay was run in veronal-buffered saline containing calcium, magnesium and 1% gelatin (GVB⁺⁺ complement buffer) and incubated for 1 hr at 25° C. After incubation the samples were centrifuged. The optical density at 415 nm (OD₄₁₅) of the supernatant was read. The inhibition of hemolysis activity is expressed as % hemolysis activity compared to control. The IC₅₀ of the aptamer was calculated to be about 30 nM.

Series [2] deals with complement C5 (full length) (Homo sapiens, UniProt P01031). The series can be described thus: filter; dot blot; 20% plateau. As to conditions: tags: Quidel / Complement Technologies A120.14 / Advanced Research Technologies. On the procedure:
The selection progress was monitored using a sandwich filter binding (dot blot) assay. The 5′-³²P-labeled pool RNA (trace concentration) was incubated with C5, 1×DPBS plus 0.1 mg/mL tRNA and 0.1 mg/mL salmon sperm DNA, for 30 minutes at room temperature, and then applied to a nitrocellulose and nylon filter sandwich in a dot blot apparatus (Schleicher and Schuell). The percentage of pool RNA bound to the nitrocellulose was calculated and monitored approximately every 3 rounds with a single point screen (+/−300 nM C5). Pool Kd measurements were measured using a titration of protein and the dot blot apparatus as described above.
Sequence Information: 45 clones from each pool were sequenced. R10 full length pool was dominated by one single clone ARC913 (SEQ ID NO: 75) which made up 24% of the pool, 2 sets of duplicates and single sequences made up the remainder. The R10 trypsinized pool contained 8 copies of the same sequence ARC913 (SEQ ID NO: 75), but the pool was dominated by another sequence (AMX221.A7; 46%).

As usually defined, the IC50 is the concentration needed to halve the response being measured. The low end stands for greater potency, the high end for weaker potency. The Kd is the equilibrium constant for the complex coming apart. Read a high Kd as weaker binding.

complement C5 (full length), sequence (P01031 whole entry): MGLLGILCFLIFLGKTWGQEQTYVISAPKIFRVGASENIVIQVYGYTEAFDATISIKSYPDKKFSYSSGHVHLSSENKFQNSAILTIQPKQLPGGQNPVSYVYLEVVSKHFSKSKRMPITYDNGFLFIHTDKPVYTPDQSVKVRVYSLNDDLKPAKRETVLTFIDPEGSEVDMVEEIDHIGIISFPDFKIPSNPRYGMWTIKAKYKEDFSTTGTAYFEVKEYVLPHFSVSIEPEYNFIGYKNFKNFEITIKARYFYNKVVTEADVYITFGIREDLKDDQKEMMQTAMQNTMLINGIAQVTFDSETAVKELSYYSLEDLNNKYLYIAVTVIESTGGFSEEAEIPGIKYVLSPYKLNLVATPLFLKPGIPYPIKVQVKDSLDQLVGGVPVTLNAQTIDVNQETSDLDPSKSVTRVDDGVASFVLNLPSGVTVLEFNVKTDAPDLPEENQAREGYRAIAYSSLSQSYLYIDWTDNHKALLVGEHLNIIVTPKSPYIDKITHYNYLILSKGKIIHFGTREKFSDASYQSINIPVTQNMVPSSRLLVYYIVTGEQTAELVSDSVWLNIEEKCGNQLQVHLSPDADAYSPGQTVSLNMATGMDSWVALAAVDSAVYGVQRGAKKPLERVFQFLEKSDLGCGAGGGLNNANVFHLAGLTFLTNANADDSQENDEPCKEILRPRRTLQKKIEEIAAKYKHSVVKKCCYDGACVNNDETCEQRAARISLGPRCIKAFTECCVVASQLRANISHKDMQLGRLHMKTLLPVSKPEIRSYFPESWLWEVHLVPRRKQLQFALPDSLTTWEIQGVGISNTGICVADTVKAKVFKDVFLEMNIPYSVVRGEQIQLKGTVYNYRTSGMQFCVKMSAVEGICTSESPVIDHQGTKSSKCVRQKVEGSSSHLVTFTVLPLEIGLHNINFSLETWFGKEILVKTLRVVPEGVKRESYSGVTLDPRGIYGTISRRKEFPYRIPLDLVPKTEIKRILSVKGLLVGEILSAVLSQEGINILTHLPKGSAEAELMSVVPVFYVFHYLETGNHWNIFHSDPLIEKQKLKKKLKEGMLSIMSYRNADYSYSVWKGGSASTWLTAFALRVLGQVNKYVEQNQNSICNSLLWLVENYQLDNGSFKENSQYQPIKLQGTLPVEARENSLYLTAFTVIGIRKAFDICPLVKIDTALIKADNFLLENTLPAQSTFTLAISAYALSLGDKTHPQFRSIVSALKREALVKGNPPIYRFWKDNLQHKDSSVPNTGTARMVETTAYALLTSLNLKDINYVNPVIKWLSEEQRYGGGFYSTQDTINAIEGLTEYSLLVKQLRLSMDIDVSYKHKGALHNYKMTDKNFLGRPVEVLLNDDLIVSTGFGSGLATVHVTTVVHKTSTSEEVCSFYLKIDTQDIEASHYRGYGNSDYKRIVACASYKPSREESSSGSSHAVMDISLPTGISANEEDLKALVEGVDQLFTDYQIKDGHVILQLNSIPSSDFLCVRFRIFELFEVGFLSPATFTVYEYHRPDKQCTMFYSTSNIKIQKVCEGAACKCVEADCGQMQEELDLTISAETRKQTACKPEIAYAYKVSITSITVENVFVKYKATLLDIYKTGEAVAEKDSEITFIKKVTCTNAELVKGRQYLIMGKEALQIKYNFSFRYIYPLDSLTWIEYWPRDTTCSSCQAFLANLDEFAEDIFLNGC
complement C5 in human serum/blood, sequence (P01031 whole entry): as above

B1: ARC913 (mixed)
RNA: GGGAGAGGAGAGAACGUUCUACCUUGGUUUGGCACAGGCAUACAUACGCAGGGGUCGAUCGAUCGAUCAUCGAUG
modifications: dRmY: A,G deoxy; C,U 2'-OMe
In series [1], B1 registered an IC50 of about 30 nM. For the same molecule, in series [2], the Kd was about 140 nM.

Source of the values: US20090269356, “Complement Binding Aptamers and Anti-C5 Agents Useful in the Treatment of Ocular Disorders” (published 2009).
